In US20170320955A1 (IGM BIOSCIENCES A S, published 2017):

Key:
Assay in all cases: ELISA as in Example 2, receptor coated on the plate
[1] = target: T1, Soluble DcR2 protein (R&D Systems Catalog #633-TR-100) (UniProt Q9UBN6 56-211, limits assumed)
T1 construct: Coated on the ELISA plate at 2 ug/mL; also called TRAILR4; decoy receptor DcR2
T1 sequence (looked up): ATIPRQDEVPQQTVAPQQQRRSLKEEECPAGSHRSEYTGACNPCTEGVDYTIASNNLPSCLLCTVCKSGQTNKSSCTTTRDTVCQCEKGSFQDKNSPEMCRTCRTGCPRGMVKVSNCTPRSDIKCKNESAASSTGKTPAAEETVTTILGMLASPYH
Protocol: (§1) DR4 or decoy receptors DcR1 and DcR2. Soluble DRS, DR4, DcR1, or DcR2 protein (R&D Systems Catalog #631-T2-100/CF, 347-DR-100/CF, 630-TR-100/CF, 633-TR-100 respectively) were coated on an ELISA plate at 2 μg/mL in 100 mM NaHCO₃ pH 9.5 overnight at 4° C. A solution of 2% BSA in PBS was used for the blocking and antibody incubation steps. The plate was blocked for 1 hour at room temperature, then incubated with mouse anti-human DRS mAb (Acris Antibodies Catalog #AM31206AF-N) for 1 hour at room temperature. anti-DRS mAb was 3-fold serially diluted to concentrations ranging from 1 to 200 ng/mL. After washing 3 times with PBS plus 0.05% Tween-20, the plate was incubated with rat anti-mouse kappa-HRP (Southern Biotech Catalog #1180-05) for 1 hour at room temperature, protected from light. After washing 3 times with PBS plus 0.05% Tween-20, the plate was incubated with TMB substrate (BD Biosciences Catalog #555214) for 20 minutes at room temperature. The reaction was stopped with 1M H₂SO₄ and absorbance at 450nm was determined using a microtiter plate reader.
(§2) Biotech Catalog #9180-05) or 1:6000 Mouse Anti-Human Kappa-HRP (Southern Biotech Catalog #9230-05) was used for detection.

[2] = target: T2, Soluble DR4 protein (R&D Systems Catalog #347-DR-100/CF) (human, UniProt O00220 24-239, limits assumed)
T2 construct: Coated on the ELISA plate at 2 ug/mL; also called TRAILR1; Apo2
T2 sequence (looked up): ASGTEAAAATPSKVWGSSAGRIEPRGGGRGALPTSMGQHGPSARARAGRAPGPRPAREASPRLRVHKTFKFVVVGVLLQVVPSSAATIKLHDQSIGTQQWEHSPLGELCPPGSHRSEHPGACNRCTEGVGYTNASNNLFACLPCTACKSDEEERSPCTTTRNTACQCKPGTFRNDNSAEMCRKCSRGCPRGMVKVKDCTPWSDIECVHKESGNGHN
Protocol: as §1, §2

[3] = target: T3, Soluble DcR1 protein (R&D Systems Catalog #630-TR-100/CF) (UniProt O14798 26-221, limits assumed)
T3 construct: Coated on the ELISA plate at 2 ug/mL; also called TRAILR3; decoy receptor DcR1
T3 sequence (looked up): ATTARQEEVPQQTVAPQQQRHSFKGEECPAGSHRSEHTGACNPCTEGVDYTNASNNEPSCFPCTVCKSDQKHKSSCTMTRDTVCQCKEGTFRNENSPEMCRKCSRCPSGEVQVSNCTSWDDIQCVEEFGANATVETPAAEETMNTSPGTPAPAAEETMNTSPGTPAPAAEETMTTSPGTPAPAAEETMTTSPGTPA
Protocol: as §1, §2

Measured: binding result

B1: Anti-DR5 mAb #2, IgG version (antibody, V domains shown)
VH: QVQLQESGPGLVKPSQTLSLTCTVSGGSISSGDYFWSWIRQLPGKGLECIGHIHNSGTTYYNPSLKSRVTISVDTSKKQFSLRLSSVTAADTAVYYCARDRGGDYYYGMDVWGQGTTVTVSS
VL: EIVLTQSPGTLSLSPGERATLSCRASQGISRSYLAWYQQKPGQAPSLLIYGASSRATGIPDRFSGSGSGTDFTLTISRLEPEDFAVYYCQQFGSSPWTFGQGTKVEIK
notes: Human IgG; variable domains put into proprietary IgG vectors (Aragen Biosciences, Lake Pharma); also called DR5 MAb IgG #2; Anti-DRS mAb #2 IgG
no binding: [1] | [2] | [3]

B2: Anti-DR5 mAb #2, pentameric IgM-J chain version (antibody, V domains shown)
VH: QVQLQESGPGLVKPSQTLSLTCTVSGGSISSGDYFWSWIRQLPGKGLECIGHIHNSGTTYYNPSLKSRVTISVDTSKKQFSLRLSSVTAADTAVYYCARDRGGDYYYGMDVWGQGTTVTVSS
VL: EIVLTQSPGTLSLSPGERATLSCRASQGISRSYLAWYQQKPGQAPSLLIYGASSRATGIPDRFSGSGSGTDFTLTISRLEPEDFAVYYCQQFGSSPWTFGQGTKVEIK
notes: Pentameric IgM with J chain; variable domains put into proprietary IgM vectors; also called DR5 MAb IgM #2; IgM Anti-DR5 mAb #2
no binding: [1] | [2] | [3]
